Source: US20240164355

Key:
[1] = target: all forms of lysine-linked (isopeptide-linked) diubiquitin
[2] = target: Nedd8-AMC, Q15843
[3] = target: Ubiquitin-AMC (Ub-AMC), P0CG48
[4] = target: SUMO1-AMC, P63165
[5] = target: SUMO2-AMC, P61956
[6] = target: ISG15-AMC, P05161
Chain of ISG15-AMC, P05161 (P05161 2-157): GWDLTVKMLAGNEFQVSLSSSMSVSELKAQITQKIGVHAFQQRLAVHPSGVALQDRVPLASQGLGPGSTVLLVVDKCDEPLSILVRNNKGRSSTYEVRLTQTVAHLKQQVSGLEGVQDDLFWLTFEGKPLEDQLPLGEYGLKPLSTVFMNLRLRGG

Chain of Ubiquitin-AMC (Ub-AMC), P0CG48 (P0CG48 whole entry, looked up): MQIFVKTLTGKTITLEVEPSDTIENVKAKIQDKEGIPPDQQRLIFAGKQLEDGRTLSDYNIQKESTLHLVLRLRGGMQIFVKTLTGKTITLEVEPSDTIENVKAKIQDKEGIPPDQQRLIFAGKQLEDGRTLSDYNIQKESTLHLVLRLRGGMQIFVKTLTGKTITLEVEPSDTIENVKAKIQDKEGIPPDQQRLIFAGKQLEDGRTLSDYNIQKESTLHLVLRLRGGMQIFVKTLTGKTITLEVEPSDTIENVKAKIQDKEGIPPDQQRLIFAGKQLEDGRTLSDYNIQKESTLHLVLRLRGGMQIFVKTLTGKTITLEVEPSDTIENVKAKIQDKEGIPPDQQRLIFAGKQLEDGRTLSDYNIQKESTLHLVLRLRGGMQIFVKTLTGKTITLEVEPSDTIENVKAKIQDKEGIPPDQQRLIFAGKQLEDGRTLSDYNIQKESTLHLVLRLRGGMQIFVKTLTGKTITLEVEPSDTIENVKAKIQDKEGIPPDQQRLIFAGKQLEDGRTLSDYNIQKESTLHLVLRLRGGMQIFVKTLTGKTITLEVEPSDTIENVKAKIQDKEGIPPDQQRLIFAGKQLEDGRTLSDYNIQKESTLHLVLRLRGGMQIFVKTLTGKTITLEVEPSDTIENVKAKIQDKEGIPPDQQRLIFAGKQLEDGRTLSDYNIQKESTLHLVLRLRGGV
Chain of Nedd8-AMC, Q15843 (Q15843 whole entry, looked up): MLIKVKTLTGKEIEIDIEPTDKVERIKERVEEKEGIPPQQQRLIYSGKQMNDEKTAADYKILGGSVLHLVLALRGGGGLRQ
Chain of SUMO2-AMC, P61956 (P61956 1-93): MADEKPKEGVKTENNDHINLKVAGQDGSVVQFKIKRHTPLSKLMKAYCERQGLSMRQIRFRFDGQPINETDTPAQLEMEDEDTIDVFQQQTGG
Chain of SUMO1-AMC, P63165 (P63165 2-97): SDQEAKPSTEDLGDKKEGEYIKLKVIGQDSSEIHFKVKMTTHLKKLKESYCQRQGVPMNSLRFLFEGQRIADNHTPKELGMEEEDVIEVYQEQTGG

B1: CidB (CidB^wPip), full length (protein)
chain: MSNGDGLIRSLVDGDLEGFRQGFESFLDQCPSFLYHVSAGRFLPVFFFSMFSTAHDANILNANERVYFRFDNHGVNPRNGENRNTANLKVAVYRDGQQVVRCYSISDRPNSDGLRFSTRERNALVQEIRRQNPNLREEDLNFEQYKVCMHGKGKSQGEAIATVFEVIREKDRQGRDKFAKYSASEVHFLRQLFRNHRLTIKEIEGRQLNQNQLRQLGRSVNFTRVEPGQQRIDNFMEMLASNQRQDVRDSLRGDILEYVTDTYNNYRAQIENNIEGRSQKFESHGFLLGFLANFSHRYTIGVDLDLSPRNSHVAFLVRHQVERENIPIVINLATRAPPYIALNRARSHAERLHVFSFIPIHTESRNTVCVGLNFNLNLDPFSVDTVGLQQDRFPLVQRLFECLENEGIRENIRDFLLHHLPAEIPRNAENYDRIFDCITGFAFGNSAFDRHPLELEEEDEAPITKYIFRHGDEGLRCLTMVFHAEGSDIVILHIRAHDAQQQGAINLQTLNVNGNDVHVWEVSCTLNNQLELDIDLPNDLGLYHDYQNNNANNFLAGDLVQVPNTENVHNTLNQVVNDGWKNIAQHRGLFQEISGALMPLVDTINVNSEDKFRSILHGTFYASDNPYKVLAMYKVGQTYSLKRGQEEEGERVILTRITEQRLDLLLLRQPRENDLDTHPIGYVLRLANNAEEVGQQQNDARQEIGRLKKQHRGFIPITSGNEVVLFPIVFNRDAHEAGNLILFPEGIGREEHVHRLDRHVRSSRPGGLVGPESVIDENPPEGLLSDQTRENFRRFYEEKAPGQNSIFLLDIGDNLHVPFSYLQGTRAQVIETLKSRIRGGGTPTAQGILQQINAILRRNNAREIEDVHDLLALDFATDNQNYRYWLQTHDMFFAARQYTFLDNQSHSTNDHYGFEITSVGVDGNQNDPTGRGLLSSHITNFKQKVDSGEKDRLIAIINVGNRHWVTLVIVHQNGNYYGYYADSLGPDSGIDNNIRGALRECDINDDNVHNISVHQQTDGHNCGIWVYENARDINQAIDQALQGNNNFGEKGEGIIGYIRGLLSAGIGNDTRQPRRNEQYFEDRRRDISQLLQNDPNLPSRRSDLIQAHPGIQHEIDPLLLQFLGLQYPQRGGGGALQLGGERVISIDFGNPQSALDKIDGVSRVYNHSNSRGSR
[1]
  diubiquitin cleavage (panel digest): Full length CidB cleaves all forms of lysine-linked (isopeptide-linked) diubiquitin, albeit with variable efficiency

B2: CidB^wMel (797-1128) (protein)
chain: QNSIFLLDIDDNLHVPFSYLQGTRAQAIETLRSRIRGGGTSTAQGILQQINTILRRNNAREIEDVHNLLALDFATENQNFRYWLQTHDMFFAARQYTFHDDRSNPTNDRHDFAITSVGVDGNQNDPTGRDLLSSNIDNFKQKVDSGEKDRLTAIINVGNRHWVTLVIVHQNGNYYGYYADSLGPDSRIDNNIRGALRECDISDDNVHDVSVHQQTDGHNCGIWAYENARDINQAIDQALQGNSNFGEKGEGIIGYIRGLLSAGIGNDTRQPQRNEQYFRNRRRNISQLFQNDSLSSPRGRLIQGRPGIQHEIDPLLLQFLELQYPQRGGGGA
[2]
  Nedd8-AMC hydrolysis (AMC release): both CidB and CidB^wMel cleaved Ub-AMC, and to a much lesser extent, the UBL Nedd8-AMC
[3]
  Ub-AMC hydrolysis (AMC release): both CidB and CidB^wMel cleaved Ub-AMC, and to a much lesser extent, the UBL Nedd8-AMC

B3: CidB(762-1143) (protein)
chain: SSRPGGLVGPESVIDENPPEGLLSDQTRENFRRFYEEKAPGQNSIFLLDIGDNLHVPFSYLQGTRAQVIETLKSRIRGGGTPTAQGILQQINAILRRNNAREIEDVHDLLALDFATDNQNYRYWLQTHDMFFAARQYTFLDNQSHSTNDHYGFEITSVGVDGNQNDPTGRGLLSSHITNFKQKVDSGEKDRLIAIINVGNRHWVTLVIVHQNGNYYGYYADSLGPDSGIDNNIRGALRECDINDDNVHNISVHQQTDGHNCGIWVYENARDINQAIDQALQGNNNFGEKGEGIIGYIRGLLSAGIGNDTRQPRRNEQYFEDRRRDISQLLQNDPNLPSRRSDLIQAHPGIQHEIDPLLLQFLGLQYPQRGGGGALQLGGERV
[2]
  kcat/KM for Nedd8-AMC: its kcat/KM for Nedd8-AMC was determined to be 0.69 µM^-1 min^-1
[3]
  catalytic efficiency for Ub-AMC relative to Nedd8-AMC: CidB^wPip catalytic efficiency for hydrolyzing Ub-AMC is 11-fold greater than for Nedd8-AMC
  kcat/KM for Ub-AMC hydrolysis: the kcat/KM for Ub-AMC hydrolysis was 7.59 µM^-1 min^-1
[4]
  UBL-AMC hydrolysis (AMC release): Despite testing human ISG15-AMC and SUMO1/2-AMC with several concentrations of CidB (up to 400 nM), we failed to detect any AMC release
[5]
  UBL-AMC hydrolysis (AMC release): Despite testing human ISG15-AMC and SUMO1/2-AMC with several concentrations of CidB (up to 400 nM), we failed to detect any AMC release
[6]
  UBL-AMC hydrolysis (AMC release): Despite testing human ISG15-AMC and SUMO1/2-AMC with several concentrations of CidB (up to 400 nM), we failed to detect any AMC release
